Experimental findings from article PMC4209899 are described below.

This series relates to Ifit1. Put plainly: filter binding. The following applies: 5' cap 0 (N-7 methylguanosine).

For the substance G3 VEEV TRD 5'-UTR RNA, cap 0, the Kd (usually a measure of binding affinity in units of concentration) stood at 91 nM.
